The nature of data set [1]: Particle size and zeta potential by dynamic light scattering. The data set is classed as physicochemical. The settings on record: in water, 25 °C.
The nature of data set [2]: Drug-loading content (Cur content in PCur). In kind it is physicochemical.
The nature of data set [3]: In vitro release of Cur from PCur in pH 7.4 PBS with or without GSH. The data set is classed as physicochemical.
The nature of data set [4]: In vitro release of PCur under different pH conditions. In kind it is physicochemical. As for the experimental part: Effect of pH values on drug release was also evaluated in the following buffers: hydrochloric acid/potassium chloride (pH 1.2), acetic acid/sodium acetate (pH 6.5) and PBS (pH 7.4). Buffer selection was based on the normal variations of the pH in the GIT from the stomach (pH 1.5) and the proximal small intestine (pH 6.0–6.8) to the ileocecal region (pH 7.3) (Hua et al., [2015]). One milliliter of sample (containing 1.2 mg of Cur) was placed in a dialysis bag, immersed into each media containing 0.1% (w/v) Tween 80 for drug release.

Data set [5] is described as follows: In vitro stability testing of PCur (size by DLS, morphology by TEM). In kind it is physicochemical. The settings on record: 37 °C. An excerpt:
A small portion of solution was collected at predetermined time points to measure the size distribution of PCur conjugate by DLS.

The test system of data set [6] is Caco-2 cell monolayer. Nature of the data set: Transcellular study, apparent permeability coefficient. The data set is classed as in vitro ADME. As for the experimental part:
A 400 μL of culture medium was added to the apical (AP) side, and 600 μL was added to the basolateral (BL) side. The medium in both the AP and BL sides was changed every two days for the first week and every day thereafter. After 21 days of incubation, the integrity of the cell monolayers was evaluated by measuring transepithelial electrical resistance (TEER) values using a Millicell® electrical resistance system (Millipore, Billerica, MA). When the TEER value of inserts exceeded […], indicating cell monolayers were integrated and tight junctions were intact, they were selected for further transport studies. For transcellular research, the culture medium in the AP and BL side was removed and changed by HBSS. […] Six hundred microliter of fresh HBSS was added to the BL side. […] One hundred microliter of sample was mixed with 50 μL chloramphenicol (IS) and 50 μL acetonitrile, vortexed and centrifuged. The concentration of Cur in supernatant was determined by UPLC–MS/MS. At the end of the experiment, TEER values were assayed to estimate the integrity of the cell monolayers. The apparent permeability coefficient (Papp) for Cur was calculated according to the following equation: Papp=(dQ/dt)/(A×C0) where the dQ/dt was the drug permeation rate, A was the surface area of polycarbonate membrane and C0 was the initial concentration of Cur in AP side.

Data set [7] can be described thus: Pharmacokinetic study after oral administration. More on the design: species or system Sprague–Dawley (SD) rats. The settings on record: rat, in vivo, 50 mg/kg. The method, then: Pharmacokinetics of PCur and Cur suspension were tested in SD rats, which were randomly divided into two study groups with six in each group. […] Three hundred microliter of blood samples were collected at 5, 10, 15, 30 and 45 min, 1, 2, 4, 8, 12 and 24 h post oral gavage and centrifuged at 12 000 rpm for 10 min. The supernatant plasma was collected and stored at −20 °C for UPLC–MS/MS analysis. The concentration of Cur was determined by a Waters ACQUITY UPLC system using a Xevo Triple Quadrupole MS equipped with an electrospray ionization (ESI) interface (Waters Co., Milford, MA). One hundred microliter plasma was mixed with 50 μL chloramphenicol (IS) and 50 μL acetonitrile, followed by vortexing for 3 min, and centrifuged at 12 000 rpm for 10 min. […] An aliquot of 5 μL was injected into the UPLC–MS/MS for analysis. Pharmacokinetic parameters were calculated using DAS 2.1 software (BioGuider Co., Shanghai, China).

For data set [8], the system named is DSS-induced IBD. The data set can be described thus: Pharmacodynamics in a murine DSS-induced IBD model (body weight, DAI, colon length, histology). Particulars: for disease activity index (DAI) / recovery of shortened colon length / weight loss: 3% DSS for seven days, daily gavage, Cur 50 mg/kg; for weight loss: versus DSS or Cur suspension. The data set is classed as in vivo, female C57BL/6 mice. The method, then:
(§1) Animal experiments were performed in female C57BL/6 mice (eight weeks, 18–20 g). Colitis was induced by feeding mice with a 3% (wt./vol) DSS solution as drinking water for seven days. The daily evaluation of mice was based on changes in body weight and development of the clinical symptoms of colitis. Disease activity index (DAI) was calculated according to the parameter previously reported (Li et al., [2015]). […] The dosage of Cur was set at 50 mg/kg. Mice were sacrificed on day 7, and histological assessment of colonic inflammation was carried out by hematoxylin and eosin (H&E) staining of 5 μm colonic tissue sections, observed by microscopy (×20 magnification). The samples were scored for inflammatory infiltration (0–3), epithelial abnormality (0–3) and crypt damage (0–3) and then the values of the three variables were summed as an indicator of inflamed degree (Magro et al., [2013]).

Data set [9] has as its system MPO activity. Nature of the data set: Myeloperoxidase (MPO) activity in colon of DSS-induced IBD mice. Particulars: oral, Cur 50 mg/kg. The data set is classed as in vivo, female C57BL/6 mice. As for the experimental part: as §1, with “[2013]). Neutrophil infiltration into the colon can be quantified by measuring MPO activity. […] The homogenate was then sonicated for 10 s, freeze-thawed three times, and centrifuged at 12 000 rpm for 15 min. The supernatant was then added to 1 mg/mL o-dianisidine hydrochloride and 0.0005% hydrogen peroxide, and the change in absorbance at 460 nm was measured.” for “[2013]).”

Data set [10] has as its system MDA content. The data set can be described thus: Malondialdehyde (MDA) content of colon of DSS-induced IBD mice. The data set is classed as in vivo, female C57BL/6 mice. Particulars: oral, Cur 50 mg/kg. The method, then: as §1, with “[2013]). Lipid peroxidation was evaluated by measuring the MDA content of the colon according to standard procedure protocol described in MDA Assay Kit (Beyotime, Haimen, China). In short, the colorimetric determination of MDA is based on the reaction of the reactive aldehyde with thiobarbituric acid at low pH (2–3) and temperature of 95 °C for 45 min. The pinkish resultant was extracted by n-butanol, and the absorbance was determined at 535 and 520 nm spectrophotometrically. […]” for “[2013]).”

Data set [11] relates to IL-6. Nature of the data set: IL-6 level in colonic tissue by ELISA, DSS-induced IBD mice. In kind it is in vivo, female C57BL/6 mice. The settings on record: oral, Cur 50 mg/kg. As for the experimental part: as §1, with “[2013]). The levels of IL-6 and TNF-α in homogenized colonic tissue were measured by quantitative enzyme-linked immunosorbent assay (ELISA) kits according to manufacturer’s instructions (R&D Systems Inc., Minneapolis, MN). The final values of IL-6 and TNF-α were expressed as pg/mg or ng/mg protein (Qiao et al., [2014]).” for “[2013]).”

Data set [12] concerns TNF-α. The data set can be described thus: TNF-α level in colonic tissue by ELISA, DSS-induced IBD mice. The data set is classed as in vivo, female C57BL/6 mice. Particulars: oral, Cur 50 mg/kg. As for the experimental part: as §1, with “[2013]). The levels of IL-6 and TNF-α in homogenized colonic tissue were measured by quantitative enzyme-linked immunosorbent assay (ELISA) kits according to manufacturer’s instructions (R&D Systems Inc., Minneapolis, MN). The final values of IL-6 and TNF-α were expressed as pg/mg or ng/mg protein (Qiao et al., [2014]).” for “[2013]).”

For data set [13], the system named is Caco-2 cells. Nature of the data set: LDH release assay. Particulars: 25 μg/mL Cur, within 2 h, versus control. On the technique in general: LDH in the medium is a marker of cell lysis.
Experimental: A lactate dehydrogenase (LDH) assay kit (Beyotime, Haimen, China) was used to determine the ability of PCur to destroy cell membranes. Briefly, Caco-2 cells seeded in a 96-well plate were incubated with Cur solution and PCur at 25 μg/mL concentration of Cur for 2 h, and serum-free medium was used as a control. After 1 h of incubation, 20 μL LDH release medium was added, followed by 1 h of co-incubation. One hundred and twenty microliter supernatant was transferred to a new plate at a determined time interval, followed by the addition of 60 μL LDH test medium and incubated for 30 min with gentle shaking. Finally, the absorption was measured at 490 nm on a microplate reader (Bio-Rad 500, Hercules, CA).
Data set [14] relates to Caco-2 cells. Nature of the data set: In vitro cytotoxicity by MTT assay. Particulars: 1 to 100 μg/mL Cur, 2 h incubation. Background: Formazan colour is commonly taken as a measure of viable cells.
Experimental: In vitro cytotoxicity of PCur and Cur solution was assessed in Caco-2 cells by MTT assay. Caco-2 cells were seeded at a density of 1 × 10^5 cells/mL in 100 μL DMEM culture medium in a 96-well plate at 37 °C and 5% CO2. After 24 h of incubation, Caco-2 cells were exposed to Cur and PCur solution with different Cur concentrations for 2 h. Meanwhile, serum-free medium incubation without drug was utilized as a control. MTT solution (20 μL, 5 mg/mL in PBS) was then added to each well, and the cells were further incubated for 4 h. The supernatant was removed and 100 μL of DMSO was introduced to each well to dissolve formazan crystals. Optical density (OD) was measured with a microplate reader (Thermo Scientific, Waltham, MA) at 570 nm. The experiments were repeated at least four times. Cell viability (%) was calculated as the ratio of OD in test samples to OD in control samples.

The values that follow come from article PMC8240970, “Orally delivered polycurcumin responsive to bacterial reduction for targeted therapy of inflammatory bowel disease” (Drug Delivery, 2017).

Marks after values point to notes of the source that are not given here.

The compound PEG-ss-curcumin [PCur] returned an average particle size in data set [1] (DLS) of 134.4 ± 4.2 nm. This compound displayed a Zeta potential in data set [1] of −3.3 ± 1.2 mV. For the same compound, the loading content in data set [2] (calculated from integrated areas of 1H NMR spectra) is 12.5%. The same compound returned a loading content in data set [2] (determined by fluorescence spectra) of roughly 14.6%. The Cur released in data set [3] (pH 7.4 PBS with 10 mM GSH, in 2 h) is on record as roughly 30%. Also, in data set [3] (pH 7.4 PBS with 10 mM GSH, within 24 h), the Cur released worked out at 53%. Further, the Cur released result in data set [3] (pH 7.4 buffer, without or with 10 μM GSH, first 2 h) is listed as “less than 10%”. Also, the Cur released result in data set [3] (pH 7.4 buffer, without or with 10 μM GSH, within 24 h) is “approximately 15%”. Moreover, the Cur released result in data set [4] (buffer of pH 6.5, 24 h) was “less than 25%”. Also, the Cur released in data set [4] (buffer of pH 6.5, first 2 h) was 10%. Besides, the pH-responsive release characteristic result in data set [4] (pH 7.4, 6.5 and 1.2) was “No significant pH-responsive release characteristic”. In [5] (pH 1.2 and pH 7.4 PBS), the “change of particle size distribution” value is on record as “little change”. Moreover, the “change of mean diameter” value in data set [5] (pH 7.4 PBS with 10 mM GSH) is listed as “substantially increased”. Besides, in data set [6], the “apparent permeability coefficient (Papp) of Cur” value is 2.38 ± 0.29 × 10^−6 cm/s. In addition, in data set [7], the “AUC0–24 h” value is listed as 202.05 ± 6.72^b h ng/mL, the “AUC0–∞” value is 223.52 ± 5.25^b h ng/mL, the “AUC(0 − 24) increase relative to Cur suspension” value was determined as 8.63 times and the Cmax is 23.35 ± 0.96^b ng/mL. For the same compound, in [7], the “Cmax relative to Cur suspension” value amounted to 3.41 fold, the “MRT0–∞” value is recorded as 9.60 ± 2.28^a h, the T1/2 is given as 6.77 ± 1.40 h and the Tmax is listed as 0.50 ± 0.25^a h. In data set [8], the “disease activity index (DAI)” value was “successfully mitigated”, the “recovery of shortened colon length” value is recorded as “strongest efficacies” and the weight loss entry was “less weight loss”. The “histological examination of colon (H&E)” value in [8] (day 7, versus DSS mice receiving PBS or Cur suspension) is “intact epitheliums, well-defined crypt structures and relatively low levels of neutrophil invasion”. Moreover, the “MPO activity in colonic tissue” value in data set [9] is given as “strongly decreased”. In addition, in data set [10], the “MDA content in colonic tissue” value is recorded as “strongly decreased”. In addition, in data set [11], the “inhibition of the production of IL-6 in colonic tissue” value is recorded as “strongest efficacy”. The “inhibition of the production of TNF-α in colonic tissue” value in [12] was “strongest efficacy”.
As for `COc1cc(/C=C/C(=O)CC(=O)/C=C/c2ccc(O)c(OC)c2)ccc1O` [Cur solution, Curcumin], in data set [13], the LDH leakage entry is listed as “no significant LDH leakage”. In addition, the cellular viability entry in [14] was “neither Cur solution nor PCur induced any significant changes”.
As for `O=C(O)c1cc(/N=N/c2ccc(S(=O)(=O)Nc3ccccn3)cc2)ccc1O` [SSZ, sulfasalazine, reference compound], in [8], the “disease activity index (DAI)” value was “successfully mitigated”, the “recovery of shortened colon length” value is given as “strongest efficacies” and the weight loss entry was “less weight loss”. The “inhibition of the production of IL-6 in colonic tissue” value in [11] is “strongest efficacy”. Moreover, the “inhibition of the production of TNF-α in colonic tissue” value in [12] is “strongest efficacy”.
